# Experimental data taken from the supplement of paper PMC10724198.
# ± gives the standard deviation of the averaged measurements.
# System: Saccharomyces cerevisiae
# Experiment: protein stability index of tFT-peptide fusion (C-terminal peptide) (PSI (0-1 scale)); higher = more stable (slower turnover)
# Conditions: genetic background: wild type; temperature: 30 C
# 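Also: PSI is a weighted mean of sequencing reads over stability bins, variants kept only with over 10 reads, mCherry proximal and sfGFP distal, peptide attached via GGGS linker.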
row,Sequence,protein stability index
1,RPGPGHYRSIIL,0.669 ± 0.11
2,RPHPQRANAPGH,0.69373 ± 9.2e-06
3,RPHTSPPPRHLY,0.61 ± 0.016
4,RPPAPVFPNFPG,0.708 ± 0.022
5,RPPAVVHLQPFY,0.7016 ± 0.0064
6,RPPFPPLPLPPP,0.674 ± 0.088
7,RPPGLIDSTIQP,0.602 ± 0.034
8,RPPLLSPSPPPP,0.649 ± 0.014
9,RPPLSSPPPPPP,0.701 ± 0.017
10,RPPPLLPARLSL,0.727 ± 0.028
11,RPPRPAATGVQH,0.683 ± 0.018
12,RPPSLCSYSICV,0.585 ± 0.0092
13,RPRKPGLACKHL,0.652 ± 0.034
14,RPSPPLLLPPAP,0.71822 ± 0.00068
15,RPSTVPGHGSDT,0.677 ± 0.011
16,RPSYRFFVRCSP,0.762 ± 0.053
17,RPTSTHQPASPS,0.684 ± 0.025
18,RPVVASRQASHS,0.703 ± 0.021
19,RQEFSGAPPHLI,0.697 ± 0.029
20,RQFRVVGCVCQP,0.686 ± 0.037
21,RQHYFDVLGEMY,0.7113 ± 0.0027
22,RQLLAVAELLTF,0.677 ± 0.086
23,RQRLGLRIIIPS,0.624 ± 0.017

row,Sequence,protein stability index
1,RQRWLSELSKAL,0.712 ± 0.083
2,RQSGSDFYGRSY,0.663 ± 0.032
3,RQYARKKKKVRN,0.683 ± 0.025
4,RRADGASLNNSV,0.697 ± 0.028
5,RRAHATLPMNEF,0.616 ± 0.015
6,RRAPTTATPARP,0.826 ± 0.14
7,RRASTVRVPTCW,0.701 ± 0.019
8,RRCDKTMSEGFF,0.692 ± 0.078
9,RRCGTERVKARE,0.766 ± 0.023
10,RRGYSNCMTLWI,0.702 ± 0.049
11,RRHLSLCLLPSL,0.685 ± 0.011
12,RRKTKTYRSWME,0.649 ± 0.035
13,RRLANMIFFLGG,0.69 ± 0.042
14,RRLDGDLSPPIR,0.664 ± 0.095
15,RRLGCDFDTYKK,0.718 ± 0.043
16,RRLPPSRSAPFP,0.698 ± 0.028
17,RRLQGKWIWQNH,0.731 ± 0.055
18,RRMIKNVRRHKV,0.661 ± 0.075
19,RRPPALDSLRHY,0.661 ± 0.011
20,RRRENAKENEIK,0.812 ± 0.13
21,RRRGEGRREKDR,0.677 ± 0.12
22,RRRREKEKRSQE,0.734 ± 0.14
23,RRRSAFRLIKEK,0.677 ± 0.045

row,Sequence,protein stability index
1,RRTEGKECEGEE,0.707 ± 0.064
2,RRTRRATKAKKR,0.682 ± 0.058
3,RRTTTDSPRADR,0.708 ± 0.047
4,RRVMGRLKNQIK,0.6672 ± 0.0065
5,RRWIFGEGMSTY,0.723 ± 0.058
6,RRWWDHGCSGAG,0.672 ± 0.061
7,RRYLREEDVQEK,0.696 ± 0.049
8,RSAPPPPPLRLD,0.789 ± 0.062
9,RSARGRRGWALG,0.712 ± 0.022
10,RSCGCNGPGRSP,0.749 ± 0.08
11,RSCPILLLSFPL,0.62297 ± 0.00052
12,RSFPLRLLSLFV,0.585 ± 0.019
13,RSGGYPGLLLFN,0.6227 ± 0.0053
14,RSGRGRRGVGWV,0.655 ± 0.038
15,RSGSRNYPGFPR,0.764 ± 0.027
16,RSIFLSRFVIGC,0.682 ± 0.018
17,RSINTETPSKNE,0.613 ± 0.056
18,RSIYEFVPIRYV,0.594 ± 0.028
19,RSPGSVSVGGVV,0.615 ± 0.021
20,RSPHGLRSRIQR,0.72 ± 0.037
21,RSPLPFPGASVP,0.747 ± 0.039
22,RSPRLRSRVRVP,0.639 ± 0.083
23,RSPSTRHVGLSW,0.6696 ± 0.00085

row,Sequence,protein stability index
1,RSRHRRQDGKKT,0.64 ± 0.029
2,RSRPPPPLLPSV,0.8206 ± 0.0072
3,RSSECNQLYTHK,0.682 ± 0.065
4,RSTPALRPVDLE,0.707 ± 0.049
5,RSTSPCPPTVSP,0.641 ± 0.091
6,RSTTDNADRILY,0.7299 ± 0.0022
7,RSVVLPSFLSPH,0.699 ± 0.017
8,RTDRIVGGNERV,0.661 ± 0.0072
9,RTFVSLLTSSSH,0.83 ± 0.17
10,RTGLLLLVQDFR,0.703 ± 0.018
11,RTGSCSCQRKPE,0.663 ± 0.017
12,RTHLVRRHGEAR,0.697 ± 0.02
13,RTKETTTRQKKK,0.708 ± 0.052
14,RTKNMRRIKEKG,0.688 ± 0.046
15,RTKVSENLNEKK,0.681 ± 0.032
16,RTLYAGVVGGNG,0.734 ± 0.086
17,RTPLPPPRPSTY,0.719 ± 0.049
18,RTPSHPLPHPHS,0.677 ± 0.12
19,RTSGRIASLPGP,0.617 ± 0.031
20,RTSPRMAPLRTH,0.713 ± 0.067
21,RTTAPPIPLPSP,0.729 ± 0.042
22,RTTKRKIKIIGI,0.709 ± 0.013
23,RVCSGYSRLRFA,0.561 ± 0.085

row,Sequence,protein stability index
1,RVDTRKQNKNSM,0.693 ± 0.019
2,RVEITGVAVTRC,0.642 ± 0.0082
3,RVFVRFGSCAGG,0.679 ± 0.059
4,RVGGRVSGGGGL,0.654 ± 0.027
5,RVPNSYELRCFR,0.544 ± 0.038
6,RVPPPTSPPSPP,0.694 ± 0.012
7,RVSEPRRPPLGR,0.65 ± 0.024
8,RVSGILQHFTSA,0.7309 ± 0.0058
9,RVSWGRTGTLRN,0.681 ± 0.018
10,RVTMLPSSQRGI,0.651 ± 0.033
11,RVTPGLSIFFWP,0.729 ± 0.0094
12,RVVCFPAPLMPR,0.705 ± 0.05
13,RVVDEPRDFQVR,0.6888 ± 0.0043
14,RVVPSVSVWLPP,0.663 ± 0.052
15,RWKLRLFLLVPT,0.602 ± 0.044
16,RWLGWRAGGAAG,0.662 ± 0.071
17,RWPSVGFTAHNV,0.571
18,RWSPLLPPQVSL,0.683 ± 0.019
19,RYASSRTLFAAV,0.672 ± 0.069
20,RYGLSLLQASRR,0.679 ± 0.081
21,RYLQAGDYTKVY,0.695 ± 0.1
22,RYPSAPPKISAS,0.613 ± 0.0083
23,RYQMVTGPPQRH,0.6921 ± 0.004

row,Sequence,protein stability index
1,RYVVTVQGSGGE,0.688 ± 0.045
2,SAAVDSPIFPSS,0.6916 ± 0.00075
3,SAELGHTNLCRS,0.6781 ± 0.0041
4,SAFSSSLTALPP,0.653 ± 0.022
5,SAGGARSLQMFC,0.66 ± 0.027
6,SAGHHACRRYAG,0.683 ± 0.037
7,SAGVTGREVFVG,0.631 ± 0.015
8,SALNKPLTTESG,0.6586 ± 0.0021
9,SAPQPPFPFPPS,0.696 ± 0.0093
10,SAPRFPARFYPL,0.66705 ± 0.0003
11,SAPRRPPLIFPG,0.672 ± 0.11
12,SARPDLAERHRP,0.673 ± 0.013
13,SASAILPWAIKL,0.639 ± 0.075
14,SASLPSPPFPSP,0.649 ± 0.054
15,SASSLPVVAARA,0.544 ± 0.021
16,SASVLVLRRSSP,0.732 ± 0.074
17,SCARARFAPHHS,0.734 ± 0.0092
18,SCCSLCKAVRNL,0.718 ± 0.054
19,SCFVAWAFCGWY,0.554 ± 0.0084
20,SCFVWAFRCWGF,0.621 ± 0.043
21,SCGWWWGGGAGG,0.656 ± 0.041
22,SCHEARWEVVMW,0.771 ± 0.17
23,SCHGGWFLHVFT,0.645 ± 0.018

row,Sequence,protein stability index
1,SCKARPLVAASD,0.66 ± 0.044
2,SCLPPSRPSSAL,0.629 ± 0.019
3,SCLSGALPPFLA,0.668 ± 0.042
4,SCLSLALYASHF,0.56 ± 0.033
5,SCLYPGLCLSYF,0.674 ± 0.0069
6,SCMSVRKSSPRS,0.691 ± 0.044
7,SCPAPAALPLPR,0.674 ± 0.026
8,SCPPVLFFPFPW,0.705 ± 0.051
9,SCRLALPPSFLS,0.706 ± 0.024
10,SCYGPRAPFHSP,0.581 ± 0.074
11,SCYHGDYCTVAW,0.7062 ± 0.0017
12,SDEIKTLGLRKK,0.683 ± 0.025
13,SDPLRLPNTCQH,0.669 ± 0.009
14,SDSAPPPAALPH,0.7263 ± 0.0029
15,SDSSRRVFDVRR,0.705 ± 0.046
16,SDTHYLAGELCT,0.596 ± 0.034
17,SDVAWVEAPPRS,0.678 ± 0.097
18,SECLCVRDRCGG,0.685 ± 0.078
19,SELVARGGGGGW,0.728 ± 0.07
20,SESVGLCLGVTW,0.767 ± 0.05
21,SEVFAVGITGVI,0.6788 ± 0.0039
22,SFAPPLRCPPSS,0.709 ± 0.02
